For two molecules, Kd results are on record in paper PMC12795676, “Integrin α5β1 mediates the inhibitory effects of vasoinhibin on angiogenesis and vascular permeability [image fx1.gif]” (The Journal of Biological Chemistry, 2025).

Conditions in all cases: both partners purified
Assay [1] addresses T1, recombinant human integrin α5β1 (human, UniProt P08648 42-995; P05556 21-728).
T1 construct: integrin α5 subunit, human, recombinant; integrin β1 subunit, human, recombinant; No catalogue number is printed; also called α5β1 integrin; source: bought: Bio-Techne
The experiment in a line: SPR; B-Vi45-51 (100 nM) immobilised on a streptavidin SA chip (Biacore 1K); integrin α5β1 injected at 30 μl/min, 60 s association/dissociation; HBS-P, 150 mM NaCl, 1 mM MnCl2, pH 7.4; 1:1 model (legend: steady-state).

The target of assay [2] is plasminogen activator inhibitor-1 (PAI-1), immobilised on ELISA plates (UniProt P05121 24-402). Put plainly: ELISA; plates coated with 2 μg/mL integrin α5β1, PAI-1 or PAI-1-uPA complex; incubated with B-Vi45-51 or Vi (dose-dependent) or 100 nM Vi mutants; horseradish peroxidase antibodies and TMB. A general note: An ELISA detects its analyte on a solid surface through an enzyme-linked reagent.
plasminogen activator inhibitor-1 (PAI-1), immobilised on ELISA plates, sequence (P05121 24-402): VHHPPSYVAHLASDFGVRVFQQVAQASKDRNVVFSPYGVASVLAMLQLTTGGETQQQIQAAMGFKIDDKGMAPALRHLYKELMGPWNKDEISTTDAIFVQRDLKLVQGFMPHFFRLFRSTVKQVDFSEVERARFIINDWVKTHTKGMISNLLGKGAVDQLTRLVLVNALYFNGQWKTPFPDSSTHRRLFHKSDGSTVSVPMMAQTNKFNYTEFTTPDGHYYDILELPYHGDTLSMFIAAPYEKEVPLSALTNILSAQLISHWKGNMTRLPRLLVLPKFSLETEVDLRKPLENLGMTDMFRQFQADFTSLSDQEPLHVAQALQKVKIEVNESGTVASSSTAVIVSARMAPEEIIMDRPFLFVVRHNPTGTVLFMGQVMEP

Assay [3] concerns the target T2, PAI-1-uPA complex, immobilised on ELISA plates (UniProt P05121 24-402; P00749 21-431).
T2 construct: the methods print '(37 °C, 10 min)' after the complex
The assay is described as above.

Assay [4] concerns the target T1, recombinant human integrin α5β1. The assay is described as above.

No end group written: not given here.

T1 sequence (P08648 42-995, chain 1 of 2): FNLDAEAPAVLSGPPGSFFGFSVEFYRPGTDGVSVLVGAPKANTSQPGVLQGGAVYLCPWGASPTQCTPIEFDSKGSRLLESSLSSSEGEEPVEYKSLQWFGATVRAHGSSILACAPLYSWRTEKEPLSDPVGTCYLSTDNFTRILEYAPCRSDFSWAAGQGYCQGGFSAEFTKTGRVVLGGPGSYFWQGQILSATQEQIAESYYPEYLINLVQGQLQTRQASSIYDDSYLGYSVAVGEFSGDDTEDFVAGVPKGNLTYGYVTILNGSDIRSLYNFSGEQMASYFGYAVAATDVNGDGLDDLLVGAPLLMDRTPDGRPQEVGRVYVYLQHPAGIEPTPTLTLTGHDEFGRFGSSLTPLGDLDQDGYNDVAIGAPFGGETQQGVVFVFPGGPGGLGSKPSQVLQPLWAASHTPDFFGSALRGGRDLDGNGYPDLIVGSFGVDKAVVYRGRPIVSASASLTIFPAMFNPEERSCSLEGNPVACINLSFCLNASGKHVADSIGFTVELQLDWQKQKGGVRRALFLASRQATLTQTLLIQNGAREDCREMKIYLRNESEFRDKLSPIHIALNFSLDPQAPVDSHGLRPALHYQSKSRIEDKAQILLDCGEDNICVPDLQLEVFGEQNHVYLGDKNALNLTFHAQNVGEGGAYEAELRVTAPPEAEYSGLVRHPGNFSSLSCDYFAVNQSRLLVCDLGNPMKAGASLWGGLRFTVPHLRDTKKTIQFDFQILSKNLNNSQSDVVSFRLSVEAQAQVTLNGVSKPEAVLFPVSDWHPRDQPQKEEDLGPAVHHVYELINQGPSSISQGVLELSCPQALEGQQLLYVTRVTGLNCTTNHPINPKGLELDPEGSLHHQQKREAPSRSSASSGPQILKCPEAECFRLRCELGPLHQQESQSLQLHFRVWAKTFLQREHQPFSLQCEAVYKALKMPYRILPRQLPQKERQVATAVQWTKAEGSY
T1 sequence (P05556 21-728, chain 2 of 2): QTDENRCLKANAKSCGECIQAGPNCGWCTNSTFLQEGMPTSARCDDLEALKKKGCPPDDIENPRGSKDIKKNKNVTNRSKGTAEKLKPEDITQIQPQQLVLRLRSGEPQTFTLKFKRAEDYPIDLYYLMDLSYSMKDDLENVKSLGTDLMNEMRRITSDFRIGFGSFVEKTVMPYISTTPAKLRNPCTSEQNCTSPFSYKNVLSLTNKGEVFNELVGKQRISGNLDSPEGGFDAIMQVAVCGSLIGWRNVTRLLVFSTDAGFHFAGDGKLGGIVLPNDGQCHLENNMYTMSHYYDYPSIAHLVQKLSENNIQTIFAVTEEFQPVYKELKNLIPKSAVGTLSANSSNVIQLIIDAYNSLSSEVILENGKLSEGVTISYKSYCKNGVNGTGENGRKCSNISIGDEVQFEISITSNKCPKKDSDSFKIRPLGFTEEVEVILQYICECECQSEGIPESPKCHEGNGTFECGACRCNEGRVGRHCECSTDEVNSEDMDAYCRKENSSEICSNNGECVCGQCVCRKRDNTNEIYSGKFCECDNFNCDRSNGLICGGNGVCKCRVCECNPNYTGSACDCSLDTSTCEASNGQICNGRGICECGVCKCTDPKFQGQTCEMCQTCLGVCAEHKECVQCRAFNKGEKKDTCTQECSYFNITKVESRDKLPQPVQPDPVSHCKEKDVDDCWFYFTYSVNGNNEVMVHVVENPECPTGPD
T2 sequence (P05121 24-402, chain 1 of 2, other chains not shown): as the sequence (P05121 24-402) above

B1: biotinylated peptide comprising residues 45 to 51 of vasoinhibin (B-Vi45-51) (peptide, UniProt P01236 73-79, looked up)
peptide: THGRGFI
modifications: also: biotin, position not given here
notes: vasoinhibin (fragment of prolactin), residues 45 to 51, holds the HGR motif (H46, R48 printed); also called biotinylated Vi45-51; source: synthetic peptide, bought: GenScript
Broadly, the Kd is the constant that tells how readily two partners part at equilibrium. B1: in assay [1], the dissociation constant Kd amounted to 2740 nM.

B2: vasoinhibin (Vi) (domain or fragment, UniProt P01236 29-151, looked up)
chain: LPICPGGAARCQVTLRDLFDRAVVLSHYIHNLSSEMFSEFDKRYTHGRGFITKAINSCHTSSLATPEDKEQAQQMNQKDFLSLIVSILRSWNEPLYHLVTEVRGMQEAPEAILSKAVEIEEQT
notes: vasoinhibin, a fragment of the hormone prolactin; also called 16K prolactin
For the molecule B2, the figures for the Kd in assay [2], in assay [3] and in assay [4] were 528 nM, 406 nM and 383 nM, respectively.
